The target in this test is T1, recombinant, soluble extracellular b1b2 domain of human NRP1, wild type (residues 274-584) (human, UniProt O14786 274-584).
T1 sequence: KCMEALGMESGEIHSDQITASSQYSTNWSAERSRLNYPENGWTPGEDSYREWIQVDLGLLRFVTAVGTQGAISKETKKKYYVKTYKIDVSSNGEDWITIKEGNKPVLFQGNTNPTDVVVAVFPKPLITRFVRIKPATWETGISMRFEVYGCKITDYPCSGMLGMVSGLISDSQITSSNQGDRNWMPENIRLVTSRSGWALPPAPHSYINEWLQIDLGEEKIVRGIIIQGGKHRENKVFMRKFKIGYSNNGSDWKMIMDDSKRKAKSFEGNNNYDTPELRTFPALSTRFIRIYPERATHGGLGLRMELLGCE

*: point of attachment. Biotin = O=C1N[C@H]2[C@H](CS[C@H]2CCCCC(=O)*)N1; Ahx = NCCCCCC(=O)O

On to {Biotin-Ahx}-RPARPAR-OH (also: on silver nanoparticles) [biotin-Ahx-RPARPAR-OH, prototypic NRP1-binding CendR peptide, on silver nanoparticles (AgNP-CendR)], for which the binding result is reported as “binds”.

The values are drawn from paper doi:10.1101/2020.06.07.137802 (bioRxiv, 2020).
